This passage reports fold increase in ReAsH fluorescence (no growth factor) results from paper PMC6054568.

One test concerns the target ErbB2 CCH-10 (UniProt P04626). Put plainly: bipartite tetracysteine display.
A further test concerns the target ErbB2 V635G CCH-10 (UniProt P04626). Put plainly: bipartite tetracysteine display.

“ErbB2 CCH-10 (from UniProt P04626 23-1255) (receptor)”: the fold increase in ReAsH fluorescence (no growth factor) with ErbB2 CCH-10 worked out at 1.8 fold.
In the test with ErbB2 V635G CCH-10, “ErbB2 V635G CCH-10 (from UniProt P04626 23-1255) (receptor)” gave a fold increase in ReAsH fluorescence (no growth factor) of 1.7 fold.
